{
  "source": "patent US20030131383A1",
  "about": "(INTERLINK BIOTECHNOLOGIES, published 2003)",
  "assay_in_all_cases": "cell-based or functional assay",
  "key": {"Carboxypeptidase": {"target": "Carboxypeptidase"}, "Papain": {"target": "T1, Papain (UniProt P00784 134-345)", "T1 sequence (looked up)": "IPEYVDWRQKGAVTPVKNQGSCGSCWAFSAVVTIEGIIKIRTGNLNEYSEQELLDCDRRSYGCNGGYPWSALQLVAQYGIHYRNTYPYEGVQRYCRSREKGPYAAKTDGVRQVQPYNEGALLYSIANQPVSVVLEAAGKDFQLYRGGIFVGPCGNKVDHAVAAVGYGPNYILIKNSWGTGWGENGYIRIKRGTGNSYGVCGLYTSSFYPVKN"}, "Chymotrypsin": {"target": "Chymotrypsin"}},
  "note": "No end group written: not given here.",
  "data": [
    {"binder": "RRWPWWPWKWPLI-NH2", "note": "[Rev4 (reverse indolicidin), C-terminal amide form]", "values": [
      {"measurement": "% Inhibition of Proteolysis by Rev4 at 2.5 µg/ml", "setting": "Carboxypeptidase", "result": 58, "unit": "%"},
      {"measurement": "% Inhibition of Proteolysis by Rev4 at 5 µg/ml", "setting": "Carboxypeptidase", "result": 92, "unit": "%"},
      {"measurement": "% Inhibition of Proteolysis by Rev4 at 10 µg/ml", "setting": "Carboxypeptidase", "result": 100, "unit": "%"},
      {"measurement": "% Inhibition of Proteolysis by Rev4 at 20 µg/ml", "setting": "Carboxypeptidase", "result": 100, "unit": "%"},
      {"measurement": "% Inhibition of Proteolysis by Rev4 at 2.5 µg/ml", "setting": "Papain", "result": 29, "unit": "%"},
      {"measurement": "% Inhibition of Proteolysis by Rev4 at 5 µg/ml", "setting": "Papain", "result": 72, "unit": "%"},
      {"measurement": "% Inhibition of Proteolysis by Rev4 at 10 µg/ml", "setting": "Papain", "result": 93, "unit": "%"},
      {"measurement": "% Inhibition of Proteolysis by Rev4 at 20 µg/ml", "setting": "Papain", "result": 99, "unit": "%"},
      {"measurement": "% Inhibition of Proteolysis by Rev4 at 2.5 µg/ml", "setting": "Chymotrypsin", "result": 16, "unit": "%"},
      {"measurement": "% Inhibition of Proteolysis by Rev4 at 5 µg/ml", "setting": "Chymotrypsin", "result": 42, "unit": "%"},
      {"measurement": "% Inhibition of Proteolysis by Rev4 at 10 µg/ml", "setting": "Chymotrypsin", "result": 75, "unit": "%"},
      {"measurement": "% Inhibition of Proteolysis by Rev4 at 20 µg/ml", "setting": "Chymotrypsin", "result": 97, "unit": "%"}
    ]}
  ]
}
